One substance from article PMC12172430 can be followed below.

For the test, the target named is DS-Cav1 (soluble trimeric RSV prefusion F ectodomain) (respiratory syncytial virus | bacteriophage T4) (UniProt P03420). Briefly: native gel or EMSA; native-PAGE and native western blot of the purified soluble RSV F protein. A general note: Mobility shift assays separate free from complexed probe on a gel.

Substance “DS-Cav1 (soluble trimeric RSV prefusion F ectodomain) (from UniProt P03420 26-513)” showed a stoichiometry N of 3.

As a reminder, the stoichiometry N is a count of units in the complex or per binding partner.
